Results: PMC5847570, “Structural model of human dUTPase in complex with a novel proteinaceous inhibitor”

Assays:
[1] = target: human deoxyuridine 5′-triphosphate nucleotidohydrolase (dUTPase), nuclear isoform (human)
[2] = target: human deoxyuridine 5′-triphosphate nucleotidohydrolase (dUTPase), nuclear isoform (human); assay: SAXS; batch measurements of hDUT (0.2-2.0 mg/mL) and of Stl (0.2-0.9 mg/mL) alone; 50 mM HEPES pH 7.5, 300 mM NaCl, 5 mM MgCl2; 20 °C in the text, 283 K in Table 1
[3] = target: human deoxyuridine 5′-triphosphate nucleotidohydrolase (dUTPase), nuclear isoform (human); assay: native MS; ESI-QTOF, positive mode; 5 mM NH4HCO3 pH 7.5; hDUT, Stl or both at ca. 0.5 µM monomer
[4] = target: Staphylococcal repressor protein Stl_(SaPIBov1) (Staphylococcus aureus) (UniProt Q9F0J8); assay: as above
[5] = target: human deoxyuridine 5′-triphosphate nucleotidohydrolase (dUTPase), nuclear isoform (human); assay: SEC-SAXS; hDUT:Stl complex (100 µL at ~8 mg/ml) on an S200 Increase 10/300 column in 50 mM HEPES pH 7.5, 300 mM NaCl, 5 mM MgCl2, in line with SAXS; two regions of the peak analysed
[6] = target: Staphylococcal repressor protein Stl_(SaPIBov1) (Staphylococcus aureus) (UniProt Q9F0J8); assay: as above
[7] = target: Staphylococcal repressor protein Stl_(SaPIBov1) (Staphylococcus aureus) (UniProt Q9F0J8); assay: ITC; Stl in the cell, hDUT in the syringe; 20 °C; 20 mM HEPES pH 7.5, 300 mM NaCl, 5 mM MgCl2, 1 mM TCEP; one set of independent sites; mean and SD of three measurements; concentrations of protomers; apparent affinity
Stl (StlSaPIBov1) = Stl (StlSaPIBov1) (Staphylococcus aureus pathogenicity …, UniProt Q9F0J8 1-267); assay: EMSA; no hDUT; 100 mM NaCl; […]; binding buffer pH not stated; settings: protein: recombinant; tags: GST-tag cleaved by thrombin, His-tag removed; N-terminal vector-derived extension remains; chain copies: 2; blunt

For “Staphylococcal repressor protein Stl_(SaPIBov1) (from UniProt Q9F0J8 1-267) (natural protein)”, which maximal inhibition of hDUT catalytic activity by Stl [1] is on record?
The maximal inhibition of hDUT catalytic activity by Stl was 70%.

With “human deoxyuridine 5′-triphosphate nucleotidohydrolase (dUTPase), nuclear isoform (enzyme)” as the molecule, how does the stoichiometry N [2] read?
Its stoichiometry N is 3.

And the stoichiometry N [3]?
The stoichiometry N was 3.

And the stoichiometry N (hDUT:Stl (3:2)) [4]?
The stoichiometry N (hDUT:Stl (3:2)) was 1.5.

What about the stoichiometry N [5] of the same molecule?
Its stoichiometry N is 3.

And the stoichiometry N (hDUT:Stl (3:2, region 2)) [6]?
The stoichiometry N (hDUT:Stl (3:2, region 2)) was 1.5.

And the stoichiometry N (hDUT:Stl (3:3, region 1)) [6]?
The stoichiometry N (hDUT:Stl (3:3, region 1)) was 1.

What about the Kd [7] of the same molecule?
Its Kd is 0.23 µM.

And the stoichiometry N (hDUT protomer per Stl protomer) [7]?
Its stoichiometry N (hDUT protomer per Stl protomer) is 1.27.

B1: interR 43 bp (dsDNA)
DNA 1: ATGTTGAAATAAATATCTCGATGTGAGATAATTTGTTCGAGGA
DNA 2: TCCTCGAACAAATTATCTCACATCGAGATATTTATTTCAACAT
Does B1 bind (Stl (StlSaPIBov1))?
Result: binds
